This is an account of results in the DeepSol protein solubility set.

This data set can be described thus: soluble on expression in E. coli; label from the status in PepcDB or PDB records.
In the case of “MGSDKIHHHHHHMVEIKKICCIGAGYVGGPTCSVIAHMCPEIRVTVVDVNEARINAWNSPTLPIYEPGLKEVVESCRGKNLFFSTNIDDAIREADLVFISVNTPTKTYGMGKGRAADLKYIEACARRIVQNSNGYKIVTEKSTVPVRAAESIRRIFDANTKPNLNLQVLSNPEFLAEGTAIKDLKNPDRVLIGGDETPEGQKAVRALCAVYEHWVPKEKILTTNTWSSELSKLAANAFLAQRISSINSISALCEATGADVEEVATAIGMDQRIGNKFLKASVGFGGSCFQKDVLNLVYLCEALNLPEVARYWQQVIDMNDYQRRRFASRIIDSLFNTVTDKKIAILGFAFKKDTGDTRESSSIYISKYLMDEGAHLHIYDPKVPREQIVVDLSHPGVSADDQVSRLVTISKDPYEACDGAHALVICTEWDMFKELDYERIHKKMLKPAFIFDGRRVLDGLHSELQTIGFQIETIGKKVSSKRIPYTPGEIPKFSLQDPPNKKPKV”, the “soluble on expression in E. coli” value is given as “not soluble”. As for “MGSDKIHHHHHHMVEPMTPRFKYTKASQENIQQLGNILEQCFVMSFGDSEIYVKGIGLENFRVIYREQKVAGGLAILPMGQWWGGQRVPMAGIAAVGIAPEYRGDGAAIALIQHTLQEISEQDIPISVLYPATQRLYRKAGYEQAGSSCVWEIPTDSIQIQHASLPLEPVVLKNNPIFHELYQQQAQLTHGYLDRHPAIWQGLNRTLDTETLYSYLIGDKDKPQGYIIFTQERTRDGSILRIRDWVTLSNPAVQSFWTFIANHRSQIDKVTWKSSVIDALTLLLPEQSATIRSQDRWMLRIVNVCKALEARGYPLGVEAELHLEVQDDLLATNQGKFILSVANGKSEVTKGGKGELQLDIKGLASLYTSLFTPRQLQLTGKLQATETALLKATQIFAGESPWMIDFF”, the “soluble on expression in E. coli” value is given as “not soluble”. For “MGSDKIHHHHHHMVGIGFRKDFAAKFLNTTDLQPDFIEVAPENWIGIGGLWKKRLQQALEKYPLYTHGLSLSIGSPDALDFDLLKGVKKFLAETGAKVYSEHLSYSKCDNAHLYDLLPIPFTHDAVKHIAKRIQTIQDFLERRLAIEIVSYYSPVAAEMSELEFVNAILQESDCDLLLDVNNIYVNGFNHNYDPYAFINQLPLERVAYIHIAGHDQVSETLIIDTHGEAIVDPVYYLYQYTMNQLQRDVPTLLERDFNIPQLSELQGEIDRLKKIKADCLTKELYGIQR”, the “soluble on expression in E. coli” value is listed as “not soluble”.

Regarding “MGSDKIHHHHHHMVIFTQVVECGSFSGAAIATGHSNSYISKTLNKLEARVGVRLLNRTTRSISLTPEGQVYYEQCQQLVLDAHDAVSLLTQSHIEPKGVLKISCPTSFAENHLQEVMSAFMHQYPEVNLVLDLNDRHVDLVQDGFDLVIRATDKLAESSLVCRKIYSCKAYTVASHDYLKRFGLPQSPEQLSEHQCICYSNLKQANKWIYSHSNGTDNQVEVKAKLLCNSASMELAMVLAGHGICRLPAFVMEKELQDNKLAILFNDYITPTIDVYAIYPSRKHLSPKVRCFIDLLVDKMPRSLL”, the “soluble on expression in E. coli” value is given as “not soluble”. Regarding “MGSDKIHHHHHHMVIQMKFFNREKEIHEILSILEGEPNIIYFIYGPLNSGKTALIKHIIENKLSDDYKVFYINFRTYLISEKREFIEAIFTTKKDDFFEKIKDKSEVLNLITKGAKILTGIPIPEVEFDKLFEEKINDAFQYLNSILLEVKKSGKQPVLILDELQMIKDVVLNWQKYLLKELFQFLVSLTKEQHLCHVFCLSSDSLFIEYVYSAGELEGRAKYLLVDDFDKETALKFMDFLAKEILNKKLSDEDKELIYNYVGGKPVYIYSVIDEMRYRKLEDILNLMLKEETQKLKYFLKELDYIKPKVELKDEIIEIKKDDIINALKLFKENYEVSDDDIPEPVYIYLVKKNILFLNPIEGILKPQSFLIWNAIKKLLNGH”, the “soluble on expression in E. coli” value is listed as “not soluble”.

Regarding “MGSDKIHHHHHHMVKVVKFGGSSLASAEQFTKVGDIIRSDESRKYVVPSAPGKRNSKDTKVTDMLYACYDLAENDQDFKVMLRKIKDRYDSIINGLHLKLALDEEFKIIAENFKAKAGADYAASRGEYLNGIIMANYLGYEFIDSATVIFFDENGNFDAEKTDKVLSKKLEQTEKAVIPGFYGAGPDGKVVTFSRGGSDITGSIVSKACHASMYENWTDVSGCLVADPRIIDNPQPIKVVTYRELRELSYMGASVLHEDAVFPVRKAGIPINIRNTNDPEAPGTLIVESTCQKPDYTITGIAGKKGFVAVNIDKDKMNSEVGFCRKALQAFEENGISIEHMPSGIDTMTVFVHQAEFEGKEQQVISSIRRLAHPDIIDLESDLALIAVVGRGMKSNRGTAGRIFSALAHANINVRMIDQGSSELNIIIGVSNDDFDKAIKAIYDIFVVTQL”, the “soluble on expression in E. coli” value is given as “not soluble”.

Consider “MGSDKIHHHHHHMVQAWYMDESTADPRKPHRAQPDRPVSLEQLRTLGVLYWKLDADKYENDPELEKIRKMRNYSWMDIITICKDTLPNYEEKIKMFFEEHLHLDEEIRYILEGSGYFDVRDKEDKWIRISMEKGDMITLPAGIYHRFTLDEKNYVKAMRLFVGEPVWTPYNRPADHFDARVQYMSFLEGTA”, for which the “soluble on expression in E. coli” value is recorded as “soluble”. To “MGSDKIHHHHHHMVRLRPYRSCDAKYIVTWISSEEEFVKWCANLITYPFTEESMNKIQESFENNEKGWLFTAIDKKGTPIGFMSMSKADYENDSVHLGFIIVDSSKRSSGFGKQMINQAIKYAFEILNVSRVTLKVFDNNSTAHYCYQNVGFVDEKYMEKEFPYKDEMWGCYCMAIQK” belongs “not soluble”; to “MGSDKIHHHHHHMVSLFKIIQVGDHGEVPGAEVFWMKDFDKWYRLSFYSFLIKTENDQYVLINTGLPDDLSLRNKFLKEWAKSDRCKFQHVEKIENALAKLNITTDDISHIIITPVQDYTIGRIHMFRKAKLYFSKKGWYEDVVTPSPSPFLNRDIYLPRLTREYLFDEAWNRIVLVENQEVIKGIEVKWTGCHHRSSMLVKFNFDKKRWCISDSAFVMNNFEQNIPIGIAEDIYECLNAYDYMRRECDVVIPSYDPENVNRFKEYILK”, “not soluble”.

Take “MGSDKIHHHHHHMVTYAGKLVLAPMVRAGELPTRLMALAHGADLVWSPEIIDKKLIQCVRKENTALQTVDYVVPSKVQTRPETLVFRTYPKLESSKLIFQIGSASPALATQAALKVINDVSGIDINAGCPKHFSIHSGMGSALLRTPDTLCLILKELVKNVGNPHSKPISVKIRLLDTKQDTLQLVKRLCATGITNLTVHCRKTEMRNREQPITDYIAEIYEICQANNVSLIVNGAIRDRSHFHDLQANHWKNTNIGGMIAECAERDPTVFDHTSKPSEDGPSWVVACREFIQWATKFDNHIGNTKYMLSRIVPGKSVFFQYFARCKSPEEVSFVLKQLNDDGSAQTDPSEYLENCRAQEKALKNANAIAKQKRKQTDHIGSDTKKQKVVPLPTDI”: the “soluble on expression in E. coli” value was “not soluble”.

Consider “MGSDKIHHHHHHMWEIDQVRQGIVKNQIPSVNLWYGEERFFIQEALQLLKNSYLAQDPSGSGIEILSGKSTGPEQIVEIANTVSFFGGKLIIVEDIPYFQDGQGDALEPFFAYFENPNPGTCLVFLAQSVNRGRKFFKAIEKKGSILEFVSPKRQQEWSAWLDRELAARGKTMKPQVKALFLEWGGHQVGALSQELDKLALFVEGKEIRTEDVRSLVPQAVEATVFELLDAVAARSSKEAVQKLQQVLRQEHSLKVLTLLSRQVRLLLGARAMRQQGRGAEEAPRLLGIKPYEAQKIWQKAAQLTWEQLSWALRECLETDVAIKTGKGEPEFLLELMVVKFCEM”, for which the “soluble on expression in E. coli” value is on record as “not soluble”. For the sequence “MGSDKIHHHHHHMWITINRNSNISLSRQIYCEIKDMILDGSLKFEQKLPSSRTLSKELSVSRNTVLDAYNQLIAEGYLETRNGYGTIVAKGISGHKVDFKLNDTFRDEKDLHTNKQKNYIDFRSGVPELKLFPRKELSKLYKQILYDLSDSDFRYGSTAGVWVLRVEISKYLFRTRGIRCNPKNIMIVSGSTQGLSLISQLLYKSNKKVAVEDPIHKGLLKVISSIGYSVVGIKVDDKGMNTNLIKSIKGISFVYTTPSHQYPLGGILPIQRRLELIKCATENDYYIIEDDYDSEFRYEGQPISSLYELSPNKVIYIGSFSKILSPAIRVGFMLLPDNILESYKTLKMYSDVHTETILQHVLAEFIGNGGLEKYIFRMKKLYNRKRKYLIKVLNTEFKNEFKIKGEAAGLHIVAHFYNVKFTESLIHKIFEAGIKVYPIQQYAIENILEYDHEIILGYAHLSFDEIEKGVKILSKIIHMNQGT”, the “soluble on expression in E. coli” value is “not soluble”. To “MGSDKIHHHHHHMWLSSEFNRMAEKTFKAYEPDDAFFSTLLYGPEGVGKSTLLVKCCQRLKEKKTILYIDAQDFVKNYAFAAQEGTLSQFRLRLRTPGVLIMDHIEVLKGKTRSIEEFYHTYEALFQRNGRIICGFRGDPSQLGFLGEKLSSRLRGGLVVPILQPTPEDMLNYLRQMAYGKFLIVEDLVLELMAEEAANFPEAQSLMNGFIQFANRTDSALDHDALLLYLQERRYQEGLRPSPQNIIQKVAELTGVAAAAIYSTTRTPEVRQARQLAIYGIRSLSRLSYPEIGASLNKSHSSIMKSYQQFQEAVQKNPELREMLESLVKYFNSPDDEKTER” belongs “not soluble”. Regarding “MGSDKIHHHHHHMWTILCDKDSGGVLLRKGVSTSIIRSNPDLLEALPKAELYELGFFKAEDLEKVLRFFHDKNFGIHAPFIYRYRYHHPNPTSLNEEEREDTFSVNKKCAELARKIGAEYMIIHFPNALQKENWLSVYREVEREFSELAGVISVRVENVYGNDHFHSAEDYRTFLENTGCKMCVDIGHLLLDAEVYGFSPIEFIEKLSDFVEEFHIYYADFETYKKCHHAPWGESKEFLEVLEFIKDFDADFVLEPTPECEEGLEKLFEYWRDL”, the “soluble on expression in E. coli” value is “not soluble”. Take “MGSDKIHHHHHHMYETFEKLPDGKKEQIIQVCIEEFIENGYQNASTNTIVKRLGISKGVLFLYFKNKKNLYLYLVEYIMEFFIQDYFEEYAGGPVININVFDNLGEYYKELMQKKPELFLFMLQAFVNTPAELKEEIDARHNQAHDSLFRHMNNEGFRPGIDIHLVDDLLHMVSYYVGQLITNDLKGKDLNTIIKDEINKNIVRYAELFAKYVDILKYGVYER”: the “soluble on expression in E. coli” value is recorded as “not soluble”. To “MGSDKIHHHHHHMYKHSIIPKPVSEYDLRLLRIFISVVEHGGFSSAANALGITRSTISVHMSNLETRMKLKLCLRGRGGFSLTEDGQAVYQAVLDLFATMDDFSLLIDSLGSELSGELIILCADQLDESKQHKMAQVIKKINDASPNLHLVLDGDSISNIEKALLKDKAHIALFPSYQQIEGLQYQPLFSESIYLCCGKQHPFFNQVDTAISEEILGQAAAIHPGINIDLAGKQQLEKLNLSAKSYQFDTRKAMILSGCYIGFMQQSFIQAELNRGEIRIIKPNSHHYQFRLSLVSKKTPREVKKVELLTNVFSQVFEL” belongs “not soluble”. As to “MGSDKIHHHHHHMYKRNERLNLIRKRVDQYGQVAVKDLAIFLQVTPETVRKDLETLENDKLITRTHGGAIQYNHINKEKSYANKWQKQSQVKERIAKKAALQIKSGEIIVIDGGTTTGRIPQYLNDITQTTIVTNSLKIADELNRAIEEQRIQAEVIMLAGKTNTEQDVVRGHMTNELLQRFKFDKAFISCGSFDTSDCYEFDLEEAHASHIMIQKSQLSYLLADSSKRDAHASYRIDGFSEIDYMISDYAKPQNIEYFNQKHWLQI”, the “soluble on expression in E. coli” value is “not soluble”. For “MGSDKIHHHHHHMYLLDSTIAKKIVSRTMKIIGHNINVMNGQGVILGSGDPKRIGSTHEGALLAIAQNRNVELSDEVASGLHGVKPGINLPLHYQGQIIGVIGITGAPDELAHYGELLKMTAEMIVEQANQQDKLQWENRQREEFILQLIKANTDDEQLQRWAKQLDIDINLPRVAAIIEISEKLSAPIHKTASLINAAASESSVDERNPRVSETLKQVLHLLQNPDRGNLIAMTSMSQLVILKPAFLDGKQWDPELENQRIDKLLQRLPAQMGLHFKIALGHFFPEKGGIARSYQTAQETLNLGKQLNPEGTKYLFEDYSLQVLLSGLKHDWRGQALASPYQQLTQADKNGQLRKTLAAYITHFGDAQQCANALFIHRNTLRYRLDKIQQLTQTDIQSLHGLLSLYLGQLLDTSANPR” the value was “not soluble”.
